Source: US8883977B2, “MUC1 antibody” (Shionogi & Co., Ltd., priority 2010, dated 2014)

Biological target: T1, Biotin-STn(DT*R)-20 (Homo sapiens, UniProt P15941)
T1 construct: Synthesis of MUC1 Tn20-Mer Glycopeptide; made in house; host or cells: chemical solid-phase synthesis
Experiment: Affinity of antibody, Biacore T100, Sensor Chip SA
Assay type: binding
Details: Biotin-STn(DT*R)-20 on Sensor Chip SA; read-out: dissociation constant KD
Protocol: Biotin-STn(DT*R)-20 was solid-phased on a Sensor Chip SA (manufactured by GE Healthcare), and a dissociation constant of 12D10 was analyzed using Biacore T100.

T1 sequence (P15941 136-155): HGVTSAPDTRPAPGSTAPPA

B1: 12D10: mouse monoclonal IgG2a anti-MUC1 antibody raised against STn(DT*R)-20-Cys-KLH; variable regions SEQ ID NOs 2 and 3 (protein)
chain 1: EVQLVESGGGLVQPGESLKLSCESNEYEFPSHDMSWVRKTPEKRLELVAAINSDGDNTYYPDTMERRFIISRDNSKKTLYLQMSSLNSADTALYYCARLTLRNWYFDVWGAGTTVTVSS
chain 2: DIVMSQSPSSLPVSVGEKVTMSCKSSQSLLYSTNQQNYLAWYQQKSGQSPKLLVYWASTRESGVPDRFTGSGSGTDFTLTISSLKAEDLAVYYCQQYYRYPPTFGAGTKLELNRA
**Q.** B1 was tested. Which Kd did it give?
**A.** Its Kd is 9.1 nM.
